Here are results for one substance from PMC4760774.

The assay addresses Dengue virus serotype 3 nonstructural protein 5 with a six-residue deletion in the priming loop (DENV3 NS5-Δ6) (dengue virus serotype 3 (DENV3)). The assay can be described thus: crystal structure.

Turning to “Dengue virus serotype 3 nonstructural protein 5 with a six-residue deletion in the priming loop (DENV3 NS5-Δ6) (enzyme)”, the stoichiometry N worked out at 2.
